Measurements as given in the supplement of paper PMC9732359.
± gives the uncertainty stated by the source.

Experiment: protein stability index of a GFP-peptide fusion (yeast GPS) (PSI 1-4); higher = more stable; sorted into four equal gates, so the index is relative within each strain
Outline: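 Peptides tiling yeast proteins in 17-residue segments were fused downstream of GFP, with Cherry expressed from the same plasmid. As a pooled library in yeast, mid-log cultures grown in leucine-free medium were sorted into four equal gates by GFP/Cherry fluorescence ratio. Gate plasmids were PCR-amplified and Illumina-sequenced, and barcodes linked reads to strains. Each peptide received a protein stability index equal to the sum of each gate's read frequency times its gate number.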

Row | Sequence | protein stability index (doa10∆) | protein stability index (pdr5∆) | protein stability index (san1∆) | protein stability index (ubr1∆)
1 | STISAREIQTAVRLILP [HTB1] | 2.13 ± 0.11 | 2.31 ± 0.12 | 2.52 ± 0.087 | 2.38 ± 0.074
2 | KTRGPFHFRAPSRIFYK [RPL16A] | 2.99 ± 0.08 | 2.6 ± 0.062 | 2.56 ± 0.061 | 2.77 ± 0.057
3 | FIGRLPIMLRSKNCYLS [RPB2] | 1.43 ± 0.072 | 1.58 ± 0.081 | 1.17 ± 0.14 | 1.19 ± 0.054
4 | RTIGIAVDHRRQNRNQE [RPL13A] | 2.65 ± 0.18 | 2.7 ± 0.13 | 3.14 ± 0.16 | 2.86 ± 0.22
5 | LGSGSLAAMAVLESHWK [PUP1] | 3.24 ± 0.16 | 3.27 ± 0.14 | 2.64 ± 0.2 | 3.69 ± 0.18
6 | LDAKNKVFVPPKSKSLP [RPO31] | 2.71 ± 0.075 | 3.03 ± 0.062 | 3.37 ± 0.085 | 2.72 ± 0.055
7 | VNDRYQIPTPNNTVDPG [CSI1] | 1.44 ± 0.059 | 1.71 ± 0.075 | 1.71 ± 0.13 | 1.55 ± 0.048
8 | NTGLLNKANIQALIHGL [RPN11] | 3.02 ± 0.14 | 2.88 ± 0.15 | 2.09 ± 0.28 | 2.67 ± 0.16
9 | LGYTHIAINFTVNHSEK [RPP1] | 1.35 ± 0.038 | 1.25 ± 0.036 | 1.56 ± 0.062 | 1.41 ± 0.042
10 | DDDDDDDDEVDYSEIQR [DSN1] | 2.98 ± 0.067 | 3.49 ± 0.087 | 3.41 ± 0.044 | 3.16 ± 0.084
11 | PEELARILQQLKLDKII [RGR1] | 2.51 ± 0.059 | 1.49 ± 0.05 | 3.15 ± 0.076 | 2.72 ± 0.063
12 | NQSTIYEDEELSRAEYD [LIN1] | 3.12 ± 0.086 | 3.2 ± 0.087 | 3.15 ± 0.058 | 3.27 ± 0.058
13 | AVVGNNMLLDPAANESE [RRP42] | 1.47 ± 0.083 | 1.81 ± 0.073 | 2.48 ± 0.093 | 2.12 ± 0.048
14 | KTVCAIALILAIQMVDP [SMC3] | 1.11 ± 0.092 | 1.1 ± 0.072 | 2.08 ± 0.23 | 1.87 ± 0.081
15 | CLTGTVAARMFHILLKL [ECM29] | 2.42 ± 0.093 | 2.03 ± 0.096 | 2.74 ± 0.058 | 2.44 ± 0.069
16 | LVKTKELIKNYITARIM [FAS1] |  | 2.91 ± 0.19 | 3.02 ± 0.27 | 2.64 ± 0.073
17 | YYVGQVMRNNESTETGY [DIS3] | 3.21 ± 0.069 | 3.19 ± 0.092 | 3.18 ± 0.055 | 3.23 ± 0.064
18 | NLEKNYLAKLSKQLSLE [IRR1] | 3.19 ± 0.14 | 3.34 ± 0.12 | 2.55 ± 0.13 | 3.14 ± 0.084
19 | RLISSKMPGGFTITVAR [FAS2] | 1.65 ± 0.038 | 2 ± 0.063 | 1.52 ± 0.073 | 1.92 ± 0.044
20 | IPVIALTDLDSPSEFVD [RPS0A] | 2.68 ± 0.095 | 2.69 ± 0.091 | 2.74 ± 0.096 | 2.42 ± 0.06
21 | TIDEQSQISPEKQTPNK [RPN1] | 3.24 ± 0.17 | 3.57 ± 0.15 | 3.28 ± 0.12 | 3.22 ± 0.056
22 | ESPVDVQSQVDSSSVSE [FAS1] | 3.11 ± 0.06 | 3.3 ± 0.073 | 3.14 ± 0.051 | 3.23 ± 0.042
23 | KVVTKKYCEIMGDNSQL [SNF2] | 3.19 ± 0.17 | 3.25 ± 0.14 | 2.88 ± 0.15 | 2.98 ± 0.1
24 | GTGKSQSGSNSGNNSKK [ROX3] | 3.37 ± 0.3 |  | 2.77 ± 0.2 | 
25 | AEFILKNRSTIFWGIRL [BRR2] | 2.73 ± 0.056 | 1.93 ± 0.063 | 1.52 ± 0.089 | 1.77 ± 0.048
26 | IVSEDHIILDTISECNL [MED1] | 2.87 ± 0.093 | 3.19 ± 0.081 | 3.2 ± 0.077 | 2.83 ± 0.12
27 | NKKIGKRPPEIMSTEAH [SIR4] | 3.09 ± 0.12 | 3.27 ± 0.17 | 3.04 ± 0.09 | 3.22 ± 0.088

Row | Sequence | protein stability index (doa10∆) | protein stability index (pdr5∆) | protein stability index (san1∆) | protein stability index (ubr1∆)
28 | NTSAATVHTATSSSIIL [SSN2] | 2.41 ± 0.053 | 2.761 ± 0.026 | 2.61 ± 0.045 | 2.65 ± 0.038
29 | NNNINENELFNDRKQTT [SSN2] | 2.71 ± 0.12 | 3.09 ± 0.1 | 2.87 ± 0.1 | 2.78 ± 0.14
30 | KTQCPNYDTCGGESAYF [RPC11] | 3.21 ± 0.16 | 2.81 ± 0.26 | 3.24 ± 0.073 | 2.94 ± 0.15
31 | KNDTKILVLALEDLKDV [PRP8] | 1.6 ± 0.1 | 1.96 ± 0.099 | 1.55 ± 0.11 | 1.73 ± 0.055
32 | AASKVKLEEESKRGNDK [RPC53] | 3.27 ± 0.089 | 3.41 ± 0.098 | 3.38 ± 0.071 | 3.25 ± 0.064
33 | HFLQFSELAGDEELEAE [PRP8] | 3.33 ± 0.15 | 3.11 ± 0.27 |  | 
34 | FSHLAGGKIINKLGNDP [BRR2] | 2.94 ± 0.19 | 3.1 ± 0.19 | 2.91 ± 0.085 | 3.02 ± 0.077
35 | KPLGTTRAMEYLKFREL [RPB2] | 2.49 ± 0.065 | 2.86 ± 0.077 | 3.13 ± 0.068 | 2.9 ± 0.056
36 | VITLLNNSSITLRCSVV [YCS4] | 2.04 ± 0.06 | 1.2 ± 0.062 | 1.21 ± 0.12 | 1.16 ± 0.051
37 | FAAKQRQELQMQRQQQG [SNF2] | 2.66 ± 0.052 | 2.84 ± 0.046 | 2.71 ± 0.038 | 2.7 ± 0.045
38 | IIAELSFLKVDPDLGLD [YJL039C/NUP192] | 3.35 ± 0.091 | 3.26 ± 0.086 | 3.23 ± 0.1 | 3 ± 0.095
39 | LSNFNADINLEESIRES [SIR3] | 3.16 ± 0.12 | 2.95 ± 0.12 | 2.75 ± 0.24 | 3.4 ± 0.094
40 | QRIIADLSADKPTSPFI [SRB8] | 2.78 ± 0.041 | 2.81 ± 0.054 | 2.82 ± 0.043 | 2.94 ± 0.048
41 | LGQERATDLAGPANNPN [PRP8] | 2.94 ± 0.048 | 3.04 ± 0.068 | 2.95 ± 0.053 | 3.17 ± 0.057
42 | GSYNAFEPASRLQGIKL [COR1] | 2.95 ± 0.053 | 3.16 ± 0.068 | 3.15 ± 0.063 | 2.99 ± 0.073
43 | EIQRTMLELLNQLDGFD [RPT2] | 2.83 ± 0.088 | 2.97 ± 0.12 | 2.93 ± 0.067 | 
44 | LNDMNTEISGLKNVNKR [SMC3] | 3.26 ± 0.064 | 3.27 ± 0.072 | 3.06 ± 0.058 | 3.12 ± 0.045
45 | RPTEKPVGRELDPISLI [RPN13] | 2.95 ± 0.11 | 3.4 ± 0.12 | 3.33 ± 0.08 | 3.19 ± 0.094
46 | YKGMASNDERIVKRLYE [BRR2] | 3.33 ± 0.085 | 3.47 ± 0.083 | 3.31 ± 0.052 | 3.51 ± 0.047
47 | PAFTFGAQKDNEKKTEE [YJL041W/NSP1] | 3.35 ± 0.2 | 2.64 ± 0.28 | 3.11 ± 0.26 | 3.46 ± 0.2
48 | NEKEQLSFINPKTGKVE [SEC65] | 2.98 ± 0.11 | 2.89 ± 0.11 | 2.98 ± 0.064 | 2.99 ± 0.059
49 | LQSNSKLASTLEKISSS [SMC4] | 2.79 ± 0.04 | 2.52 ± 0.035 | 2.54 ± 0.037 | 2.53 ± 0.034
50 | MYNGKDRAQNSYQPMYQ [SSN3] | 3.31 ± 0.21 | 2.48 ± 0.23 |  | 3.2 ± 0.063
51 | ILTKEVQGSTLAQLTSK [RPS1A] | 3.27 ± 0.084 | 3 ± 0.08 | 3.2 ± 0.072 | 2.93 ± 0.15
52 | TKVNNQLIKVAVHNGGR [RPL9A] | 1.92 ± 0.074 | 1.52 ± 0.06 | 1.78 ± 0.086 | 2.4 ± 0.029
53 | ERKEQEEKEKEQSKEVG [BRN1] | 3.48 ± 0.21 |  | 3.49 ± 0.11 | 3.45 ± 0.14
54 | ISKTVRFNVVKVSAAAG [RPS11A] | 3.19 ± 0.17 | 1.6 ± 0.13 |  | 1.64 ± 0.11
